From patent publication US20070015228A1 come the findings set out here.

As a reminder, the EC50 (read off the curve) is the concentration at which the effect is half-maximal. Read a low EC50 (read off the curve) as a more potent agent. One may read the Kd as the equilibrium constant for the complex coming apart.

In assay [1] the target is human CD20 (human) (UniProt P11836). Description: cell ELISA on CD20-transfected CHO clone 1H6, suspension format, 300,000 cells/well. (In general: An ELISA detects its analyte on a solid surface through an enzyme-linked reagent.)
Chain of human CD20 (human) (P11836 whole entry): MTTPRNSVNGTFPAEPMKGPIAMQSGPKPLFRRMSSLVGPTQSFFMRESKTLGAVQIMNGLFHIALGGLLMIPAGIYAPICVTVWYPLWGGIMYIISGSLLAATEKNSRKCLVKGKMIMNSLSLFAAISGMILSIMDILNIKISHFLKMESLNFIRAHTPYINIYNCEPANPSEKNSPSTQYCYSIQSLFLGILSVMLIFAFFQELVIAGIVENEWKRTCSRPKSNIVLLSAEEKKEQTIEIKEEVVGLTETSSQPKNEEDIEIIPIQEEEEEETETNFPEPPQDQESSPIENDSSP
Assay [2] shares this target. Nature of the assay: cell ELISA on CD20-transfected CHO clone 2H3, suspension format, 300,000 cells/well.
For assay [3] the target is unchanged. Nature of the assay: cell ELISA on CD20-transfected CHO clone C12M, suspension format, 300,000 cells/well.
Assay [4] has the same target. Nature of the assay: Scatchard analysis, iodinated RITUXAN with unlabeled RITUXAN on WIL2 cells in suspension (n=3).
For assay [5] the target is unchanged. Description: Scatchard analysis, iodinated RITUXAN with unlabeled RITUXAN on CHO clone 2H3 cells in suspension (n=3).
Assay [6] has the same target. Nature of the assay: Scatchard analysis, iodinated RITUXAN with unlabeled RITUXAN on adherent CHO clone 6D7 cells expressing human CD20 (n=3).
Assay [7] has the same target. Nature of the assay: Scatchard analysis, iodinated RITUXAN with unlabeled RITUXAN on adherent CHO clone 4H10 cells expressing human CD20 (n=3).
Assay [8] shares this target. Description: Scatchard analysis, iodinated RITUXAN with unlabeled RITUXAN on adherent CHO clone C12M cells expressing human CD20 (n=3).

As to RITUXAN® (rituximab) (antibody), the EC50 (read off the curve) with human CD20 (human) [1], with human CD20 (human) [2] and in the assay with human CD20 (human) [3] was 0.2 µg/mL throughout. Further, the Kd was determined as 3.91 nM with human CD20 (human) [4]; 8.57 nM with human CD20 (human) [5]; 5.97 nM in the assay with human CD20 (human) [6]; 5.5 nM with human CD20 (human) [7]; 13.7 nM with human CD20 (human) [8].
